Data reported in US20240101645A1 (HENRY M JACKSON FOUNDATION FOR THE ADVANCEMENT OF MILITARY …, published 2024).

T1: MERS-CoV spike antigens (bead panel) (MERS-CoV, UniProt K9N5Q8 18-1296)
T1 sequence: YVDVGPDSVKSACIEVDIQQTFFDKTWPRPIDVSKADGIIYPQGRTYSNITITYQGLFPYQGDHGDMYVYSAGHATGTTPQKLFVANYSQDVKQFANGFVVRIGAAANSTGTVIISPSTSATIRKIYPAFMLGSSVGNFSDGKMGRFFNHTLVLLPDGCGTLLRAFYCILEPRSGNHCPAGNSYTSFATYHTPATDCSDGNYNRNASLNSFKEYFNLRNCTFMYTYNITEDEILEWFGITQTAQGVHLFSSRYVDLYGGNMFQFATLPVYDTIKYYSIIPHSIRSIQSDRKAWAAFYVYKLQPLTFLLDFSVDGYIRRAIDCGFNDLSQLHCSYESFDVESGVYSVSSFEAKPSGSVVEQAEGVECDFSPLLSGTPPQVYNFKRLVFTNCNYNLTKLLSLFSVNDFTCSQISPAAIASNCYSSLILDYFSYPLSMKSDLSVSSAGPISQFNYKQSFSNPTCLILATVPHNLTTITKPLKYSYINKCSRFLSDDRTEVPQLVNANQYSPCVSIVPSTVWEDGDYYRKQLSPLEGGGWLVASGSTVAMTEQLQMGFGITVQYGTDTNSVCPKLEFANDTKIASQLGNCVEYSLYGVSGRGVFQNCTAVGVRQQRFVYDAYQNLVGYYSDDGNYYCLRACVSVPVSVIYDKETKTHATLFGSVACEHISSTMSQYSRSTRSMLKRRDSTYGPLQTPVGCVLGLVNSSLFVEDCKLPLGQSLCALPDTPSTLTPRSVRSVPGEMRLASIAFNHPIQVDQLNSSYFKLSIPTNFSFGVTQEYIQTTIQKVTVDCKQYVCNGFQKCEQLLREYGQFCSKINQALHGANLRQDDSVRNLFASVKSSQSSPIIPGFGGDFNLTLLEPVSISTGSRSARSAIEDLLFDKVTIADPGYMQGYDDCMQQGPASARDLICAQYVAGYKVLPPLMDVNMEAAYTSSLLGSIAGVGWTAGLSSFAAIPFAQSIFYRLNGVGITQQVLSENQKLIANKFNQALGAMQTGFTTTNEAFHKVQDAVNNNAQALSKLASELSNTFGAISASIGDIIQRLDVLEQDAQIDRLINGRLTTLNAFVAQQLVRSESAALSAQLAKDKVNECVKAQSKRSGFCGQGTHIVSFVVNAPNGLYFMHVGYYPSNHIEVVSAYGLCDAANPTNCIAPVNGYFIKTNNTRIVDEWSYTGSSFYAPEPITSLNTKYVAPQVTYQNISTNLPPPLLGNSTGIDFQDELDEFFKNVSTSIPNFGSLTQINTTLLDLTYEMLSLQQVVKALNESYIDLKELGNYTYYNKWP


Experiments:
[1] = target: T1, MERS-CoV spike antigens (bead panel); assay: multiplex bead assay
[2] = target: SARS-CoV-2 S on pseudovirions (Wuhan Hu-1 / IL1/2020, last 18 amino acids removed) (SARS-CoV-2, UniProt P0DTC2 14-1273); assay: cell-based or functional assay
[3] = target: SARS-CoV-1 spike antigens (bead panel) (SARS-CoV-1, UniProt P59594 14-1195); assay: multiplex bead assay

Binder | binding result [1] | Mean IC50, pSV neutralization [2] [µg/ml] | Mean IC80, pSV neutralization [2] [µg/ml] | binding result [3]
COV_1144 (antibody, V domains shown, human IgG1) VH: EVQLVESGGGLVQPGGSLRLSCAASGFTFRSFWMSWVRQAPGKGLEWVANIKEDASEKHYVDPVKGRFTISRDNAKNSLYLQLNSLRAEDMAVYYCARVGRGYCTNGLCYTAFEYWGQGTLVTVSS VL: DIQMTQSPSSLSASVGDRVTITCRTSQSISNYLNWYQQKPGKAPKLLIYAASSLQSGVPSRFSGSGSGTDFTLTISSLQPEDFATYYCQQSYSTAWTFGQGTKVEIRR | no binding | ≥ 25 | ≥ 25 | 
COV_2048 (antibody, V domains shown, human IgG1) VH: QVQLQESGPGLVKPSETLSLTCTVSGGSISNTSYYWGWIRQPPGKGLEWIGSIYRSGSTYYNPSLKSRVTISIDTSKNQFTLKLSSVTAADTAVYYCARDYYGDYSAKPMEYWGQGTLVTVSS VL: QSALTQPRSVSGSPGQSVTISCTGTSSDVGGYNYVSWYQQHPGKAPKLLIYDVSKRPSGVPDRFSGSKSGNTASLTISGLQAEDEADYYCCSYAGSYVVFGGGAKLTVLG | no binding | 20.3 | ≥ 25 | 
COV_1166 (antibody, V domains shown, human IgG1) VH: EVQLVESGGGLVQPGGSLRLSCAVSGFTFRSFWMSWVRQTPGKGLEWVANIKEDGSEKYYVDSVKGRFTISRDNAKNSLYLQMNSLRAEDTAVYYCAREGRWELLGFAFDIWGQGTMVTVSS VL: not shown | no binding | ≥ 25 | ≥ 25 | 
COV_2143 (antibody, V domains shown, human IgG1) VH: EVQLVESGGGVVQPGRSLRLSCAASGFTFNSFAMLWVRQAPGKGLEWVALFSYDGSNKYYADSVKGRFTISRDNSKNTLYLQMNNLRAVDTAVYYCARASPYDINGYYLHRIAFDIWGQGTMVTVSS VL: QSVLMQPPSVSGAPGQRVTISCTGSSSNIGAGYDVHWYQQLPGTAPKLLMYGNSNRPSGVPDRFSGSKSGTSASLAITGLQAEDEADYYCQSYDSGLSGWVFGGGTKLTVLG | no binding | ≥ 25 | ≥ 25 | 
COV_2193 (antibody, V domains shown, human IgG1) VH: QVQLVQSGAEVKKPGASVKVSCKVSGYTLTDLSMHWVRQTPGKGLEWMGGFDAEDGETIYAQNFQGRVTMTEDTSIDVAYMELSSLRSEDTAVYYCATGSVGPDYWGQGTLVTVSS VL: SSELTQDPAVSVALGQTVRITCQGDSLRSYYASWFQQKPGQAPVLVIYLKNDRPSGIPDRFSGSSSGNTASLTITGAQAEDEADYYCNSRDSSGNHQVFGGGTKLTVL |  | ≥ 25 | ≥ 25 | 
COV_2077 (antibody, V domains shown, human IgG1) VH: QVQLQESGPGLVKPSETLSLTCTVSGGSISSYSWSWIRQPPGKGLEWIGYIYYSGSTNYNPSLKSRVTISVDTSKNQFSLKLSSVTAADTAVYYCARESMGRYSLELRQPESAFDYWGRGTLVTVSS VL: not shown | no binding | ≥ 25 | ≥ 25 | 
COV_2100 (antibody, V domains shown, human IgG1) VH: EVQLVESGGGLVQPGGSLRLSCAASGFTFSSYDMYWVRQATGKGLEWVSAIGTAGDTYYPGSVKGRFTISRENAKNSLYLRMNSLRAGDTAVYFCARADKNTAMFFDYWGQGTLVTVSS VL: DIQMTQSPSSLSASVGDRVTITCRASQNINNFLHWYQQKPGNAPKLLIYAASTLQSGVPSRFSGSGSGTDFTLTISSLQPEDFATYYCQQSYSTPGGTFGGGTKVEIK |  | 23 | ≥ 25 | 
COV_1025 (antibody, V domains shown, human IgG1) VH: QVQLVESGGGVVQPGRSLRLSCAASGFTFNTYAMHWVRQAPGKGLEWVAIISYDGGNKYYADSMKGRFTISRDNSKNTLYLQMNSLRAEDTAVYYCARARTGNYYYGMDVWGQGTTVTVSS VL: not shown | no binding |  |  | 
COV_1170 (antibody, V domains shown, human IgG1) VH: QVQLVESGGGVVQPGRSLRLSCAASGFTFSTYAMHWVRQAPGKGLEWVALISYDGSNKYYADSVKGRFTISRDNSKNTLDLQMNSLRAEDTAVYYCARSLGGYRTGFDYWGQGTLVTVSS VL: DIQLTQSPSFLSASVGDRVTITCRASQGISSYLAWYQQKPGKAPKLLIYAASTLQSGVPSRFSGSGSGTEFTLTISSLQPEDFATYYCQQLNSYPPFTFGPGTKVDIKR | no binding | 0.2 | ≥ 25 | 
COV_2093 (antibody, V domains shown, human IgG1) VH: EVQLVESGGGLVQPGGSLRLSCAASGFMFNRFWMSWVRQAPGKGLEWVTNIKQDGSEKNYVDSVKGRFTISRDNAKNSLYLQMNSLRAEDTAVYYCARDGLYYDFRSPSPFYGMDVWGQGTTVTVSS VL: DIQMTQSPSSLSASVGDRVTITCRASQSISSYLNWYQHKSGKAPKLLIYAASRLQSGVPSRFSGSGSGTDFTLTIVSLQPEDLATYYCQQSYSTPRTFGGGTKVEIKR | no binding | ≥ 25 | ≥ 25 | 
COV_2032 (antibody, V domains shown, human IgG1) VH: EVQLVESGGGLVQPGGSLRLSCAASGFTFTTYWMHWVRQAPGKGLVWVSRIKTDGSSTNYADSVKGRFTISRDNAKNMLYLQMNSLRAEDTAVYYCAREGPVSIVYFDYWGQGTLVTVSS VL: not shown | no binding |  |  | 
COV_2134 (antibody, V domains shown, human IgG1) VH: EVQLVESGGGVVQPGRSLRLSCAASGFIFSSYGMYWVRQAPGKGLEWVAVIWYDGSNKYYADSVKGRFTISRDNSKNTLYLQMNSLRAEDTAVYYCARDLSSSSGWDDYYYYYGMDVWGQGTTVTVSS VL: not shown |  | 16.1 | ≥ 25 | 
COV_1172 (antibody, V domains shown, human IgG1) VH: QVQLQESGPGLVKPSETLSLTCTVSGGSIRSYYWSWIRQPPGKGLEWIGYIYYSGSTNYSPSLKSRVTISVDTSKNQFSLKLNSVTAADTAVYYCARRGLGYCSGDSCSNAFDIWGQGTMVTVSS VL: DIQMTQSPSSLSASVGDRVTITCRASQSISSYLNWYQQKPGRAPELLIYDASSLQSGVPSGFSGSGSGTDFTLTISSLQPEDFATYYCQQSYSTPFTFGPGTKVDIKR | no binding | ≥ 25 | ≥ 25 | 
COV_1151 (antibody, V domains shown, human IgG1) VH: QVQVQQWGAGLLKPSETLSLTCAVYGGSFNNYYWSWIRQPPGKGLEWIGEINHSGSTNYNPSLMSRVTISVDTSKNQFSLKLTSVTAADTAVYFCARGLPVTTFFSSYYGMDVWGQGTTVTVSS VL: EIVLTQSPGTLSLSPGERATLSCRASQSVSRTYLAWYQQKPGQAPRLLIYGASSRATGIPDRFSGSGSGTDFTLTISRLEPEDFAVYYCQHYGSSPWTFGQGTKVEIRR | no binding | ≥ 25 | ≥ 25 | 
COV_2027 (antibody, V domains shown, human IgG1) VH: EVQLVESGGGLIQPGGSLRLSCAASGFSVSTNYMSWVRQAPGKGLEWVSIIYSGGGTYYADSVKGRFTISRDTSENTLYLQMNSLRAEDTAVYYCASFLVGATGQPWYWGQGTLVTVSS VL: not shown |  | 0.16 | 0.45 | no binding
COV_2057 (antibody, V domains shown, human IgG1) VH: EVQLVQSGAEVKKPGESLKISCKGSGYSFISYWIAWVRQMPGKGLEWMGIIYPGDSDTTYSPSFQGQVTISADKSISTAYLQWSSLKASDTAIYYCARLLYYSDSSPLDSWGQGTLVTVSS VL: DIQMTQSPSSLSASVGDRVTITCRASQSISTYLNWYQQKPGKAPNLLIYAASSLQSGVPSRFSGSGSGTDFTLTISSLQPEDFATYYCQQSHSTPRTFGPGTKVDIK |  | 0.97 | 8.99 | no binding
COV_2125 (antibody, V domains shown, human IgG1) VH: EVQLVESGGGVVQPGRSLRLSCAASGFTFSSYGMHWVRQAPGKGLEWVAVISYDGSNKYYADSVKGRFTISRDNSKNTLSLQMNSLRPEDTAVYYCAKDSPYYYDSSGYYPGYFQDWGQGSLVTVSS VL: DIQMTQSPSSLSASIGDRVTITCRASQTISDYLNWYQQKPGKAPNLLIYAASTLQSGVPSRFSGSGSGTDFTLTISSLQPEDFATYYCQQSYITPRTFGQGTKVEIK |  |  |  | no binding
